Results as given in patent US20220048967A1 (published 2022).
Numbered stars: 1 amine (or outer) side, 2 acyl side, 3 side chain; on linkers, the order of the positions; unused ones are H or OH. Square brackets hold non-standard residues; d marks the D form. Side chains are listed from the residue outwards. Ends that are not written are not given here. * marks the point of attachment. C20 diacid = O=C(O)CCCCCCCCCCCCCCCCCCC(=O)*; C18 diacid = O=C(O)CCCCCCCCCCCCCCCCC(=O)*; γGlu = O=C(O)[C@H](CCC(=O)[*:2])N[*:1]; AEEA = NCCOCCOCC(=O)O; Aib = CC(C)(N)C(=O)O

T1: human gastric inhibitory peptide receptor (GIPR) (human, UniProt P48546 22-466)
T1 sequence (looked up): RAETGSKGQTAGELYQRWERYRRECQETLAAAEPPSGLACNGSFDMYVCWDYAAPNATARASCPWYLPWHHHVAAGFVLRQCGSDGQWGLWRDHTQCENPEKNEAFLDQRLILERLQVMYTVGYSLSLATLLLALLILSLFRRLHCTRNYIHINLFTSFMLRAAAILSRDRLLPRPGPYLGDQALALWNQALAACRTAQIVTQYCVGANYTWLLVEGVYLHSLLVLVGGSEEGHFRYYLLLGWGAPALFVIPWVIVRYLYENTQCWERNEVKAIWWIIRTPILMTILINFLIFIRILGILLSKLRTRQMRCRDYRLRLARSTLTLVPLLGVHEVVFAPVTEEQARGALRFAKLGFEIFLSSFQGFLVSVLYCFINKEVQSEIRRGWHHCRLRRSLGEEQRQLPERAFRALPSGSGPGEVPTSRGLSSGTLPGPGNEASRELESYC


Experiments:
[1] = target: T1, human gastric inhibitory peptide …; assay: cell-based or functional assay
[2] = target: human GLP-1 receptor (GLP-1R) (human, UniProt P43220 24-463); assay: cell-based or functional assay

Binder | hGIPR cAMP EC50 ratio [1] | hGIPR cAMP Rel EC50 [1] | hGLP1R cAMP EC50 ratio [2] | hGLP1R cAMP Rel EC50 [2]
Y[Aib]EGTFTSDYSILLDKK([AEEA-AEEA-γGlu-C20 diacid])AQ[Aib]EFIEYLIAGGPSSG-NH2 (N-terminus assumed; SMILES CC[C@H](C)[C@H](NC(=O)[C@H](CC(C)C)NC(=O)[C@H](Cc1ccc(O)cc1)NC(=O)[C@H](CCC(=O)O)NC(=O)[C@@H](NC(=O)[C@H](Cc1ccccc1)NC(=O)[C@H](CCC(=O)O)NC(=O)C(C)(C)NC(=O)[C@H](CCC(N)=O)NC(=O)[C@H](C)NC(=O)[C@H](CCCCNC(=O)COCCOCCNC(=O)COCCOCCNC(=O)CC[C@H](NC(=O)CCCCCCCCCCCCCCCCCCC(=O)O)C(=O)O)NC(=O)[C@H](CCCCN)NC(=O)[C@H](CC(=O)O)NC(=O)[C@H](CC(C)C)NC(=O)[C@H](CC(C)C)NC(=O)[C@@H](NC(=O)[C@H](CO)NC(=O)[C@H](Cc1ccc(O)cc1)NC(=O)[C@H](CC(=O)O)NC(=O)[C@H](CO)NC(=O)[C@@H](NC(=O)[C@H](Cc1ccccc1)NC(=O)[C@@H](NC(=O)CNC(=O)[C@H](CCC(=O)O)NC(=O)C(C)(C)NC(=O)[C@@H](N)Cc1ccc(O)cc1)[C@@H](C)O)[C@@H](C)O)[C@@H](C)CC)[C@@H](C)CC)C(=O)N[C@@H](C)C(=O)NCC(=O)NCC(=O)N1CCC[C@H]1C(=O)N[C@@H](CO)C(=O)N[C@@H](CO)C(=O)NCC(N)=O) [Example 318] | 1.69 | 0.0547 nM | 0.482 | 0.124 nM
Y[Aib]EGTFTSDYSILLDKK([AEEA-AEEA-γGlu-C18 diacid])AQ[Aib]TFIEYLIEGGPSSG-NH2 (N-terminus assumed; SMILES CC[C@H](C)[C@H](NC(=O)[C@H](CC(C)C)NC(=O)[C@H](Cc1ccc(O)cc1)NC(=O)[C@H](CCC(=O)O)NC(=O)[C@@H](NC(=O)[C@H](Cc1ccccc1)NC(=O)[C@@H](NC(=O)C(C)(C)NC(=O)[C@H](CCC(N)=O)NC(=O)[C@H](C)NC(=O)[C@H](CCCCNC(=O)COCCOCCNC(=O)COCCOCCNC(=O)CC[C@H](NC(=O)CCCCCCCCCCCCCCCCC(=O)O)C(=O)O)NC(=O)[C@H](CCCCN)NC(=O)[C@H](CC(=O)O)NC(=O)[C@H](CC(C)C)NC(=O)[C@H](CC(C)C)NC(=O)[C@@H](NC(=O)[C@H](CO)NC(=O)[C@H](Cc1ccc(O)cc1)NC(=O)[C@H](CC(=O)O)NC(=O)[C@H](CO)NC(=O)[C@@H](NC(=O)[C@H](Cc1ccccc1)NC(=O)[C@@H](NC(=O)CNC(=O)[C@H](CCC(=O)O)NC(=O)C(C)(C)NC(=O)[C@@H](N)Cc1ccc(O)cc1)[C@@H](C)O)[C@@H](C)O)[C@@H](C)CC)[C@@H](C)O)[C@@H](C)CC)C(=O)N[C@@H](CCC(=O)O)C(=O)NCC(=O)NCC(=O)N1CCC[C@H]1C(=O)N[C@@H](CO)C(=O)N[C@@H](CO)C(=O)NCC(N)=O) [Example 321] | 0.517 | 0.0752 nM | 0.437 | 0.204 nM
Y[Aib]EGTFTSDYSILLDKK([AEEA-AEEA-γGlu-C20 diacid])AQ[Aib]AFIEYLIAGGPSSG-NH2 (N-terminus assumed; SMILES CC[C@H](C)[C@H](NC(=O)[C@H](CC(C)C)NC(=O)[C@H](Cc1ccc(O)cc1)NC(=O)[C@H](CCC(=O)O)NC(=O)[C@@H](NC(=O)[C@H](Cc1ccccc1)NC(=O)[C@H](C)NC(=O)C(C)(C)NC(=O)[C@H](CCC(N)=O)NC(=O)[C@H](C)NC(=O)[C@H](CCCCNC(=O)COCCOCCNC(=O)COCCOCCNC(=O)CC[C@H](NC(=O)CCCCCCCCCCCCCCCCCCC(=O)O)C(=O)O)NC(=O)[C@H](CCCCN)NC(=O)[C@H](CC(=O)O)NC(=O)[C@H](CC(C)C)NC(=O)[C@H](CC(C)C)NC(=O)[C@@H](NC(=O)[C@H](CO)NC(=O)[C@H](Cc1ccc(O)cc1)NC(=O)[C@H](CC(=O)O)NC(=O)[C@H](CO)NC(=O)[C@@H](NC(=O)[C@H](Cc1ccccc1)NC(=O)[C@@H](NC(=O)CNC(=O)[C@H](CCC(=O)O)NC(=O)C(C)(C)NC(=O)[C@@H](N)Cc1ccc(O)cc1)[C@@H](C)O)[C@@H](C)O)[C@@H](C)CC)[C@@H](C)CC)C(=O)N[C@@H](C)C(=O)NCC(=O)NCC(=O)N1CCC[C@H]1C(=O)N[C@@H](CO)C(=O)N[C@@H](CO)C(=O)NCC(N)=O) [Example 317] | 1.01 | 0.0948 nM | 0.333 | 0.172 nM
Y[Aib]EGTFTSDYSILLDKK([AEEA-AEEA-γGlu-C18 diacid])AQ[Aib]AFIEYLIAGGPSSGAPPPS-NH2 (N-terminus assumed; SMILES CC[C@H](C)[C@H](NC(=O)[C@H](CC(C)C)NC(=O)[C@H](Cc1ccc(O)cc1)NC(=O)[C@H](CCC(=O)O)NC(=O)[C@@H](NC(=O)[C@H](Cc1ccccc1)NC(=O)[C@H](C)NC(=O)C(C)(C)NC(=O)[C@H](CCC(N)=O)NC(=O)[C@H](C)NC(=O)[C@H](CCCCNC(=O)COCCOCCNC(=O)COCCOCCNC(=O)CC[C@H](NC(=O)CCCCCCCCCCCCCCCCC(=O)O)C(=O)O)NC(=O)[C@H](CCCCN)NC(=O)[C@H](CC(=O)O)NC(=O)[C@H](CC(C)C)NC(=O)[C@H](CC(C)C)NC(=O)[C@@H](NC(=O)[C@H](CO)NC(=O)[C@H](Cc1ccc(O)cc1)NC(=O)[C@H](CC(=O)O)NC(=O)[C@H](CO)NC(=O)[C@@H](NC(=O)[C@H](Cc1ccccc1)NC(=O)[C@@H](NC(=O)CNC(=O)[C@H](CCC(=O)O)NC(=O)C(C)(C)NC(=O)[C@@H](N)Cc1ccc(O)cc1)[C@@H](C)O)[C@@H](C)O)[C@@H](C)CC)[C@@H](C)CC)C(=O)N[C@@H](C)C(=O)NCC(=O)NCC(=O)N1CCC[C@H]1C(=O)N[C@@H](CO)C(=O)N[C@@H](CO)C(=O)NCC(=O)N[C@@H](C)C(=O)N1CCC[C@H]1C(=O)N1CCC[C@H]1C(=O)N1CCC[C@H]1C(=O)N[C@@H](CO)C(N)=O) [Example 316] | 3.75 | 0.024 nM | 0.644 | 0.122 nM
Y[Aib]EGTFTSDYSILLDKK([AEEA-AEEA-γGlu-C20 diacid])AQ[Aib]EFIEYLIAGGPSSGAPPPS-NH2 (N-terminus assumed; SMILES CC[C@H](C)[C@H](NC(=O)[C@H](CC(C)C)NC(=O)[C@H](Cc1ccc(O)cc1)NC(=O)[C@H](CCC(=O)O)NC(=O)[C@@H](NC(=O)[C@H](Cc1ccccc1)NC(=O)[C@H](CCC(=O)O)NC(=O)C(C)(C)NC(=O)[C@H](CCC(N)=O)NC(=O)[C@H](C)NC(=O)[C@H](CCCCNC(=O)COCCOCCNC(=O)COCCOCCNC(=O)CC[C@H](NC(=O)CCCCCCCCCCCCCCCCCCC(=O)O)C(=O)O)NC(=O)[C@H](CCCCN)NC(=O)[C@H](CC(=O)O)NC(=O)[C@H](CC(C)C)NC(=O)[C@H](CC(C)C)NC(=O)[C@@H](NC(=O)[C@H](CO)NC(=O)[C@H](Cc1ccc(O)cc1)NC(=O)[C@H](CC(=O)O)NC(=O)[C@H](CO)NC(=O)[C@@H](NC(=O)[C@H](Cc1ccccc1)NC(=O)[C@@H](NC(=O)CNC(=O)[C@H](CCC(=O)O)NC(=O)C(C)(C)NC(=O)[C@@H](N)Cc1ccc(O)cc1)[C@@H](C)O)[C@@H](C)O)[C@@H](C)CC)[C@@H](C)CC)C(=O)N[C@@H](C)C(=O)NCC(=O)NCC(=O)N1CCC[C@H]1C(=O)N[C@@H](CO)C(=O)N[C@@H](CO)C(=O)NCC(=O)N[C@@H](C)C(=O)N1CCC[C@H]1C(=O)N1CCC[C@H]1C(=O)N1CCC[C@H]1C(=O)N[C@@H](CO)C(N)=O) [Example 319] | 2.77 | 0.054 nM | 0.522 | 0.113 nM
Y[Aib]EGTFTSDYSILLDKK([AEEA-AEEA-γGlu-C18 diacid])AQ[Aib]DFIEYLIEGGPSSG-NH2 (N-terminus assumed; SMILES CC[C@H](C)[C@H](NC(=O)[C@H](CC(C)C)NC(=O)[C@H](Cc1ccc(O)cc1)NC(=O)[C@H](CCC(=O)O)NC(=O)[C@@H](NC(=O)[C@H](Cc1ccccc1)NC(=O)[C@H](CC(=O)O)NC(=O)C(C)(C)NC(=O)[C@H](CCC(N)=O)NC(=O)[C@H](C)NC(=O)[C@H](CCCCNC(=O)COCCOCCNC(=O)COCCOCCNC(=O)CC[C@H](NC(=O)CCCCCCCCCCCCCCCCC(=O)O)C(=O)O)NC(=O)[C@H](CCCCN)NC(=O)[C@H](CC(=O)O)NC(=O)[C@H](CC(C)C)NC(=O)[C@H](CC(C)C)NC(=O)[C@@H](NC(=O)[C@H](CO)NC(=O)[C@H](Cc1ccc(O)cc1)NC(=O)[C@H](CC(=O)O)NC(=O)[C@H](CO)NC(=O)[C@@H](NC(=O)[C@H](Cc1ccccc1)NC(=O)[C@@H](NC(=O)CNC(=O)[C@H](CCC(=O)O)NC(=O)C(C)(C)NC(=O)[C@@H](N)Cc1ccc(O)cc1)[C@@H](C)O)[C@@H](C)O)[C@@H](C)CC)[C@@H](C)CC)C(=O)N[C@@H](CCC(=O)O)C(=O)NCC(=O)NCC(=O)N1CCC[C@H]1C(=O)N[C@@H](CO)C(=O)N[C@@H](CO)C(=O)NCC(N)=O) [Example 320] | 0.241 | 0.161 nM | 0.224 | 0.397 nM
